# Reference: the nanobody polyreactivity screen of Harvey et al. (2022)
# Assay: yeast display, Sf9 membrane polyspecificity reagent, FACS + sequencing; frameworks hold sequencing errors
# Method in brief: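 Galactose-induced (36–48 hours) yeast carrying a synthetic nanobody display library were exposed to 10% biotinylated, detergent-solubilized Sf9 membrane reagent at 4 °C for 1 hour. FACS followed streptavidin microbead enrichment, using low and high (top ~1%) gates for expression (anti-HA) and reagent binding (streptavidin). Colony PCR, MiSeq 2 × 250 sequencing and CDR-length filtering followed. Labels for polyreactivity reflect the gate of origin.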
sequence,measurement,value
QVQLVESGGGLVQAGGSLRLICAASGLILKYYAMGWYRQAPGKEREFVAAITRRGGITYYADSVKGRFTISRDNAKNTVYLQMNSLKPEDTAVYYCAADPKLGSLAYWRYSYPLYDYWGQGTQVTVSS,polyreactivity (PSR sort gate),low polyreactivity
QDQLVESGGGLVQAGVSLRLSCAASGSIFNRNAMGWYRQAPGKERELVADISWSGGSTYYADSVKGRFTISRDNAKNTVYLQMNSLKPEDTAVYYCADKSTGRWWRAGYDYWGQGTQVTVSS,polyreactivity (PSR sort gate),high polyreactivity
QVQLVESGGGLVQAGGSLRLSCAASGFTFYRYAMGSYRQAPGKERELFAAIRKSGGSTYYADSVKGRFTISRDNAKNTVYLLMNSMKAEDTAVYYCAKRYATDGFGYWGQGTQVTVSS,polyreactivity (PSR sort gate),high polyreactivity
QVQLVESGGGLVQAGGSLRLSCAASGFIFKFYTMGWYRQAPGKERELVAVISGSGGRTYYADSVKGRFTISRDNAKNTVYLQMNSLKPEDTAVYYCARYGPYQSSYHYDYWGQGTQVTVSS,polyreactivity (PSR sort gate),high polyreactivity
QVQLVESGGGLVQAGVSLRLSCAAYGFTFTGYAMGWYRQAPGKEMEFVAAITTGGGSTYYADSVKGRFTISRDNAKNTVYFQMNSLKPEDTAVYYCAKSRQYIGGFDYWGQGTQVTVSS,polyreactivity (PSR sort gate),high polyreactivity
QVQLVESGGGLVQAGGSLRLSCAASGSTYISYAMGWYRQAPGKERELVAAITVSGGRTYYADSVKGRFTISRDNAKNTVYLQMNSLKPEDTAVYYCARGYARSRRWRFDYWGQGTQVTVSS,polyreactivity (PSR sort gate),high polyreactivity
QVQLVESGGGLFHAGGSLRLSCPDSGSTFYRYTMGCYRQAPGKERELVAAITSGGGTDYADSVKARFTISRDNAKNTVYLQLISLKPEDTAVYFCADFLSWRDYYLYWRGSWREDYWGQGTQVTVSS,polyreactivity (PSR sort gate),low polyreactivity
QVQLVESGGGLVQAGGSLRLSCAASGNTFYRYAMGWYRQAPGKERELVAAISWSGSSTYYADSVKGRFTISRDNAKNTVYLQMNSLKPEDTAVYYCAVYYTRIGPRYDYWGQGTQVTVSS,polyreactivity (PSR sort gate),high polyreactivity
QVQLVESGGGLVQAGGSLRLSCAASGIILGAYDMGLYRQAPGKERELVAAINRNGDRTYYADSVKGRFTISRDNAKNTVYLQMKSLKPEDTAVYFCAAPRVVRTFDYWGQGTQVTVSS,polyreactivity (PSR sort gate),high polyreactivity
QVQLVESGGGLVQAGGSLRLSCAASGIIFGYYAMGWYRQAPGKERELVAGISSSDSTYYADSVKGRFTISRDNAKNTVYLQMNSLKPEDTAVYYCATPVYRSTYEYDYWGQGTQVTVSS,polyreactivity (PSR sort gate),low polyreactivity
QVQLVESGGGLVQAGGSLRLSCAASGIILPYYAMGWYRQAPGKEREIVATISSDGTSTYYADSVKGRFTISRDNAKNTVYLQMNSLKPEDTAVYYCAARIRQNPGGDNSWGQGTQVTVSS,polyreactivity (PSR sort gate),low polyreactivity
QDQLVESGGVLVQARGSLRLSCAASASTLPGYAMGWYRQAPGKERELVAAISSSGTSTYYADSVKGRFTISRDNAKNTVYLQMNSLKPEDTAVYYCAAEGYRWVTAYYDYDEDYWGQGTQVTVSS,polyreactivity (PSR sort gate),low polyreactivity
QVQLVESGGGLVQAGGSLRLSCAASGTFIGYAMGWYRQAPGKERELVAAIDVSGGSTYYADSVKGRFTISRDNAKNTVYLQMNSLKPEDTAVYYCATDRGPEVVLYDYWGHGTQVTVSS,polyreactivity (PSR sort gate),low polyreactivity
QVQLVESGGGLVQAGGSLRLSCAASGSIFEGNAMGWYRQAPGKERELVAAISRRGGRTYYADSVKGRFTISRDNAKNTVYLQMNSLKPEDTAVYYCNALYFRDGRYQTYSDKFDYWGQGTQVTVSS,polyreactivity (PSR sort gate),high polyreactivity
QVQIVESGGGLVQAGGSLRLSCAASGITFSSYAMGWYRQAPGKERELVAAITRTGGRTYYADSVKGRFTISRDNAKNTVYLQMNSLKPEDTAVYYCAAYYIAYYYWGQGTQVTVSS,polyreactivity (PSR sort gate),high polyreactivity
QVQLVESGGGLVQAGGSLRLSCAASGSIFKSNAMGWYRQAPGKERELVAAISNGGITNYADSVKGRFTISRDNAKNTVFLQMNSLKPEDTAVYYCATSDVREIWVDYWGQGTQVTVSS,polyreactivity (PSR sort gate),low polyreactivity
QVQLVESGGGLVQAGGSLRLSCAASGFIFRYYAMGWYRQAPGKERELVAAISKRGGGTYYADSVKGRFTISRDNAKNTVYLQMNSLKPEDTAVYYCNKDGGYGTGSSREYDSWGQGTQVTVSS,polyreactivity (PSR sort gate),high polyreactivity
